Square brackets hold non-standard residues; d marks the D form. Ends that are not written are not given here. * marks the point of attachment. Palmitoyl = CCCCCCCCCCCCCCCC(=O)*; Hyp = O=C(O)[C@@H]1C[C@@H](O)CN1
T1: human GIP-R (Homo sapiens, UniProt P48546)
T1 construct: expressed in transfected cells; host or cells: Chinese Hamster Lung (CHL) fibroblast cells, stably transfected
T1 sequence (P48546 22-466): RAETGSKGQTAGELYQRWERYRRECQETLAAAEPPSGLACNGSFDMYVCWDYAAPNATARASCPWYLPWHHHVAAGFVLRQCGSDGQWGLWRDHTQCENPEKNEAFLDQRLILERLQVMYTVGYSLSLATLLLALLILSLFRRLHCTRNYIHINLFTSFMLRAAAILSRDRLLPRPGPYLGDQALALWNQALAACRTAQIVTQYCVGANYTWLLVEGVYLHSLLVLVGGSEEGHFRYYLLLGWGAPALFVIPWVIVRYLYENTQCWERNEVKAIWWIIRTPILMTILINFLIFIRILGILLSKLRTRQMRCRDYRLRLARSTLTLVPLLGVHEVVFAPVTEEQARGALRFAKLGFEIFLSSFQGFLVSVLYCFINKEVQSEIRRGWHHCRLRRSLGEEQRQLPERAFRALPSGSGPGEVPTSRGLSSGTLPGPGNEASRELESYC

T2: human GIP receptor (GIP-R) (human, UniProt P48546 22-466)
T2 sequence (looked up): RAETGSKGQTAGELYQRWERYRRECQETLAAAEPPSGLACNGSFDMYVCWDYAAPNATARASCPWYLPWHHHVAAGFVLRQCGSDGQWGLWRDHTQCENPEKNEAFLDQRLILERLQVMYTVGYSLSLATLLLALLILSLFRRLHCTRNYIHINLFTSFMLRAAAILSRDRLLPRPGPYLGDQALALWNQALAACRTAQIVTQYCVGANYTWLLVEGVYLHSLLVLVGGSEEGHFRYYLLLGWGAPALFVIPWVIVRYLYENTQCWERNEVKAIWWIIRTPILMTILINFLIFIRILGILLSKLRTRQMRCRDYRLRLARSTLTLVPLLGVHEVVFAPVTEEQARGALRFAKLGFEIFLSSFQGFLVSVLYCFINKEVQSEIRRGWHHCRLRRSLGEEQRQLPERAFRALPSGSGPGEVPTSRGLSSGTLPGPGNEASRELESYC


Experiments:
DPP-IV = DPP-IV (Homo sapiens, UniProt P27487); experiment: Degradation of GIP and Glu3-substituted GIP analogs by DPP-IV (HPLC); format: in vitro ADME; settings: for Intact Peptide Remaining (%) 0 hrs. / remaining at 2 h, 2 μm / remaining at 4 h, 2 μm / remaining at 8 h, 2 μm: incubation with DPP-IV (5 mU), 37°C; for Intact Peptide Remaining (%) 0 hrs.: pH 7.8, 0 hrs; for half-life: incubation with DPP-IV, unit not given (time points in hrs), read-out: Estimated Half-Life; for remaining at 2 h, 2 μm / remaining at 4 h, 2 μm / remaining at 8 h, 2 μm: isolated DPP-IV enzyme (5 mU); for remaining at 2 h, 2 μm: pH 7.8, 2 hrs, read-out: Intact Peptide Remaining (%) 2 hrs.; for remaining at 4 h, 2 μm: pH 7.8, 4 hrs, read-out: Intact Peptide Remaining (%) 4 hrs.; for remaining at 8 h, 2 μm: pH 7.8, 8 hrs, read-out: Intact Peptide Remaining (%) 8 hrs.
Sequence of DPP-IV (P27487 whole entry, species assumed): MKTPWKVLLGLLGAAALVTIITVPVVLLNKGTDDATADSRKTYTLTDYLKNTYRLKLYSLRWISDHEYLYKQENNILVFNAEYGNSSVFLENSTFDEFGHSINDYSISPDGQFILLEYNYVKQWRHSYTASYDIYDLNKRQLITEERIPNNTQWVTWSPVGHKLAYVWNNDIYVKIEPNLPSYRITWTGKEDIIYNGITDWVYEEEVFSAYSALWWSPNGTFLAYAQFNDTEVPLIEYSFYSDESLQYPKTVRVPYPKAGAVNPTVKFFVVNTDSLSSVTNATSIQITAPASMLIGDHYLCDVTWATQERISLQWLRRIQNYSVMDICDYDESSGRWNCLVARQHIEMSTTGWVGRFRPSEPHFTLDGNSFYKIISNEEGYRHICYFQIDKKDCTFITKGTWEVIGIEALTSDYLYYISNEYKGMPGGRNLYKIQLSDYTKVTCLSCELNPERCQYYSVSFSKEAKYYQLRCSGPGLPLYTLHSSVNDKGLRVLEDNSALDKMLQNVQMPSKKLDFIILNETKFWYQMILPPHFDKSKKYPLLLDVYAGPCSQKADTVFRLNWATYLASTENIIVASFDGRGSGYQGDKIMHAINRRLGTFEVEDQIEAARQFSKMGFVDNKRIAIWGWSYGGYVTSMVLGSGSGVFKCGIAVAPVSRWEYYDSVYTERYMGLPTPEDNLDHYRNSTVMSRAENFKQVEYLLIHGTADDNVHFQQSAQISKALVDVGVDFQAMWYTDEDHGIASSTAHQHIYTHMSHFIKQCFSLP

human GIP-R = target: T1, human GIP-R; experiment: Cyclic AMP production in GIP-R transfected CHL cells; format: cell-based
Experimental: Tissue Culture. […] (v/v) fetal bovine serum, 1% (v/v) antibiotics (100 U/ml penicillin, 0.1 mg/ml streptomycin) (all from Gibco, Paisley, Strathclyde, Scotland). BRIN-BD11 cells were cultured in RPMI-1640 tissue culture medium containing 10% (v/v) fetal bovine serum, 1% (v/v) antibiotics (100 U/ml penicillin, 0.1 mg/ml streptomycin) and 11.1 mm glucose. The origin and secretory characteristics of these cells have been described in detail previously (McClenaghan, N. H. et al., 1996, Diabetes 45:1132-1140). The cells were maintained in sterile tissue culture flasks (Corning Glass Works, Sunderland, UK) at 37° C. in an atmosphere of 5% CO2 and 95% air using a LEEC incubator (Laboratory Technical Engineering, Nottingham, UK).
Methods. […] The culture medium was removed and cells subsequently washed twice with 2 ml ice-cold HBS buffer (130 mm NaCl, 20 mm HEPES, 0.9 mm NaHPO4, 0.8 mm MgSO4, 5.4 mm KCl, 1.8 mm CaCl2, 5.6 mm glucose and 25 μm phenol red) (pH 7.4). […] The medium was subsequently removed and the cells lysed with […] of lysing solution (5% TCA, 3% SDS, 92% H2O, also containing 0.1 mm unlabelled cAMP and 0.1 mm unlabelled ATP) (Sigma, Poole, Dorset, UK). The plates were then left on a shaker at room temperature for 30 minutes and tritiated cAMP formation determined by column chromatography using Dowex and alumina ion exchange columns (BioRad Life Science Research, Alpha Analytical, Larne, UK) as previously described (Gault, V. A. et al 2002, Biochem. J. 367:913-920).

[1] = target: T2, human GIP receptor (GIP-R); experiment: cell-based or functional assay

Row | Molecule | Cyclic AMP EC50 (nm) [1] | cAMP response in presence of 10^-7 M GIP (% GIP max) [1] | also measured
1 | YA[Hyp]GTFISDYSIAMDK(Palmitoyl)IHQQDFVNWLLAQKGKKNDWKHNITQ [(Hyp^3)LysPAL^16GIP] |  |  | Intact Peptide Remaining (%) 0 hrs. (DPP-IV): 100%; half-life (DPP-IV): > 8 h; remaining at 2 h, 2 μm (DPP-IV): 100%; remaining at 4 h, 2 μm (DPP-IV): 100%; remaining at 8 h, 2 μm (DPP-IV): 100%
2 | YA[Hyp]GTFISDYSIAMDKIHQQDFVNWLLAQKGKKNDWKHNITQ [(Hyp^3)GIP] |  |  | Intact Peptide Remaining (%) 0 hrs. (DPP-IV): 100%; half-life (DPP-IV): > 8 h; remaining at 2 h, 2 μm (DPP-IV): 100%; remaining at 4 h, 2 μm (DPP-IV): 100%; remaining at 8 h, 2 μm (DPP-IV): 100%; resistance to DPP-IV degradation (DPP-IV; words, up to 8 hours incubation): completely resistant; EC50 (human GIP-R): 1.34 µM; remaining activity at 0.1 µM (human GIP-R; CHL, read-out: cAMP response in presence of 10^-7 M GIP (% GIP max)): 56 ± 4%
3 | YAAGTFISDYSIAMDKIHQQDFVNWLLAQKGKKNDWKHNITQ [(Ala^3)GIP] | 2.3 nm | 88 % GIP max | 
4 | YAKGTFISDYSIAMDKIHQQDFVNWLLAQKGKKNDWKHNITQ [(Lys^3)GIP] | 2.6 nm | 63.5 % GIP max | 
5 | YA[Hyp]GTFISDYSIAMDK(Palmitoyl)IHQQDFVNWLLAQKGKKNDWKHNITQ [(Hyp^3)LysPAL^16GIP] | 138 nm | 48 % GIP max | 
6 | YA[Hyp]GTFISDYSIAMDKIHQQDFVNWLLAQKGKKNDWKHNITQ [(Hyp^3)GIP] | 1340 nm | 56 % GIP max | 

Second part, led by results:

Row | Cyclic AMP EC50 (nm) [1] | cAMP response in presence of 10^-7 M GIP (% GIP max) [1] | Molecule | also measured
7 | 0.5 nm | 100 % GIP max | native GIP (glucose-dependent insulinotropic polypeptide; gastric inhibitory polypeptide), GIP(1-42) (from UniProt P09681 52-93) (ligand) | 
8 | 207 nm | 66 % GIP max | YAPGTFISDYSIAMDKIHQQDFVNWLLAQKGKKNDWKHNITQ [(Pro^3)GIP] | 
9 | 3 nm | 78 % GIP max | YAWGTFISDYSIAMDKIHQQDFVNWLLAQKGKKNDWKHNITQ [(Trp^3)GIP] | 
10 | 1 nm | 62 % GIP max | YAFGTFISDYSIAMDKIHQQDFVNWLLAQKGKKNDWKHNITQ [(Phe^3)GIP] | 
11 | 1.5 nm | 76 % GIP max | YAYGTFISDYSIAMDKIHQQDFVNWLLAQKGKKNDWKHNITQ [(Tyr^3)GIP] | 
12 | 870 nm | 63 % GIP max | YAPGTFISDYSIAMDK(Palmitoyl)IHQQDFVNWLLAQKGKKNDWKHNITQ [(Pro^3)LysPAL^16GIP] | 

Reference: patent US20090170762A1, “Treatment of Diabetes Related Obesity” (UUTech Limited, priority 2005, published 2009)
